In patent US11897928B2, “Conjugates for delivering an anti-cancer agent to nerve cells, methods of use and methods of making thereof” (Manzanita Pharmaceuticals, Inc., priority 2018, dated 2024):

What was measured:
[1] = Intracisternal delivery of 800-rhBDNF in naïve rats (Spectralis IRAF/IR imaging, NIR microscopy and HE histopathology); type: in vivo
Method: A Dyomics Near InfraRed (NIR) dye 800 was conjugated to rhBDNF (800-rhBDNF) as set forth above. […] Three single doses of 800-rhBDNF were injected midline intracisternally in naïve rats (n=4; n=3 800-rhBDNF, n=1 control, unmodified dye 800 carboxylic acid form). Three test doses of 800-rhBDNF were selected: lowest (5 μL for syringe, at 0.20 concentration=1 μg study article), mid-, and highest (30 μL; upper volume constraint is 50 μL). Images at three timepoints were collected, just prior to treatment, 15 min, and 6 h using two imaging modalities in both eyes (left eye, oculus sinister, OS; right eye, oculus dexter, OD). Imaging and histopathology methods were used to detect 800-rhBDNF in the optic chiasm or optic nerve head.
Two seetings were selected on the Heidelberg Spectralis®. Infrared autofluorescence IRAF; or ICG, to detect indocyanine green, an NIR dye uses a diode laser with a wavelength of 790 nm in the NIR spectrum. A barrier filter at 830 nm separates excitation and fluorescence light and thus, IRAF/ICG detects near IR fluorescence in 800-rhBDNF. […] After dissection, tissues were cryostatted to preserve NIR 800. Two directly contiguous sets of slides were produced from two sections of optic nerve, optic chiasm from brain tissue, and optic nerve head from eyes. HE stain.
Hematoxylin and eosin (HE) stain was applied to one slide set to reveal nerve tissue. NIR microscopy. Using an Olympus IX73 inverted 2-deck microscope with motorized filter cube turret; objective turret; Proscan XYZ stage; a 75 W Xenon burner; and DP80 Dual CCD 12.7 MP camera, NIR images are acquired in two channels at 4× in the FITC channel (detects auto-fluorescence) and ICG channel. The morphology of HE stained slides to those with FITC+NIR images was compared to confirm that NIR 800 had localized to in nerve tissue.

TrkB receptor = assay: Bioassay in RGC cultures for TrkB receptor binding; type: cell-based

TrkB receptor binding following synthesis (TrkB receptor): TrkB receptor binding remains intact
B1: 800-rhBDNF: Dyomics Near InfraRed (NIR) dye 800 conjugated to rhBDNF (conjugate, UniProt P23560 19-247, looked up)
Neurotrophic factor BDNF …: APMKEANIRGQGGLAYPGVRTHGTLESVNGPKAGSRGLTSLADTFEHVIEELLDEDQKVRPNEENNKDADLYTSRVMLSSQVPLEPPLLFLLEEYKNYLDAANMSMRVRRHSDPARRGELSVCDSISEWVTAADKKTAVDMSGGTVTVLEKVPVSKGQLKQYFYETKCNPMGYTKEGCRGIDKRHWNSQCRTTQSYVRALTMDSKKRIGWRFIRIDTSCVCTLTIKRGR
modifications: Dyomics 800 NIR dye
notes: Dyomics Near InfraRed (NIR) dye 800 conjugated to rhBDNF
localized irritation in the retinas ([1]; intracisternal injection, live imaging at baseline, 15 min and 6 h): No localized irritation in the retinas was observed | distribution of midline injection (both eyes) ([1]; midline intracisternal injection, imaging in OS and OD): distributed bilaterally | transport of 800 dye from the site of injection ([1]; preliminary studies, given intracisternally): transports 800 dye away from the site of injection, via the optic chiasm, to the optic nerve head | localization of NIR 800 dye in nerve tissue (morphology of NIR microscopy compared to HE stain) ([1]; single midline intracisternal injection, histopathology after euthanasia at 6 h, optic chiasm and optic nerve head): localizes the 800 dye and moves the 800 dye away from the injection site via optic chiasm to optic nerve head
